# Source: the domain aggregation screens of Martell et al. (2025)
# Assay: soluble fraction after stress (log2 fold change); higher = more stays soluble; pooled small domains, quantitative proteomics
# Details: stress: 75 degC
# 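Also: 20 min heating vs room temperature control held 20 min.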
row,Sequence,soluble fraction (log2)
1,HMAEMLQDVLNMLSAKDREILVRYYYYYESVKQVAAEMQMSESAVKMRMSRARKKMQQELIDKG,-4.61
2,HMAEPAEDLLSLEGMDKGLAYQLASNGVVTREDLAELATDDLLEIREMDAEQAAALIMKAREHWFEAEQQ,0.755
3,HMAEPEALLAMAQRILGEEVAQSLFQGAAREQGKEGYLPDPTPAFLDALEARLSGSVGAATAHAMISQLVG,-0.15
4,HMAEPSTSYTQFMDQAKEGKIKRVDVQGRTLTVTPTEGATYKITAPGDLWMVEDLRKAGVQVYGQP,0.29
5,HMAEPYDERKVMEQMIPKGKNTIVAHLGHLKDHGETGYLQEALSYLRERESELGFDLKEVRALVHN,0.365
6,HMAEQVLHQKLAARRKELNSLVAQVARVRGIPHSHVHSGLRREAGGPPLAQATTDQVEARISLARKWLRA,-1.47
7,HMAERLQARIDAPGVRLDKALAETFPTLSRARLQALLADGAVTRDGQTVSNGSAKAQPGLYVVALPPVA,0.385
8,HMAESNQIQLSDVREALNMIGPASWLDLVHYLDTGKGRGGQRLRRMLKSLSRSGEIELVARGTYQITDN,-0.437
9,HMAEVALFVNGSDVNLRSGPGQESTRVIGSLNLGDEVRIKSQNGQWREVYVPKTRQVGWVAHWLLSEAPP,-0.535
10,HMAEVPDLRNKTQQEAEAELTNHNLKLGNVTEEYSATVEAGRVISQSTSYGTKVLEGSSVDITISKGPEPT,0.135
11,HMAEWLFDARKIPDEVMNYLRRIAVQAIEEKHYSPELVADLLGISRSSIYDWLNWYRNGGEEDLDTRKA,-1.53
12,HMAFAQMAQEAAKGKDDFNDLRQEMEAVIKEQPHILLMAQFGQNPYEIAYQEAKRRKAQDQQQQQ,0.877
13,HMAFGTGTVTASSLRVREDASTSAATLDTLSKGSKVSVLADEQDGFYKVQIGEQVGYMSAEYLDVTE,0.00175
14,HMAFKNGLLQTSKKVTLVRKVDGVTMRFDSLRAASVFLGRNKGYLSNVIKNGRTLDNYEIVVGE,-1.04
15,HMAFRIGGFVQEGSVVRQQDGGTVRFEVTDTAHSVPVTYKGSLPDLFKEGKGVVAQGKLMNGTFVADQVLA,0.165
16,HMAGATDTVRNLLERQIREGELLPGQRLPTEPELAARLGVSRNSLREALQSLEDSGLIVKRHGIGTFVTE,0.0985
17,HMAGLELVVTREQAGRTVKSLLRGELGISTALMGRLKRTGTGLTVNGTRVFTNAVLREGDRLAVDLDAAE,-1.35
18,HMAGLKERLFYFIEYKGLTVQSFEKTVGLSNGAVSKMGDNTRRSTIDKISNFFGDLNKNWLLTGEGEMLI,-2.98
19,HMAGRKMMVMANNLSVRKSANSLSEKLADLSRGDTVEYISSTNGWNKVRYKGQIGYVSSYYLKDTGEEVE,-0.562
20,HMAGTKRAENIEIQKLTEVLEARLDSVGFFWPDHKAESMIMTLRNMISRLPLTEADVRVFHGIIKSLADK,-0.486
21,HMAGTWQDQGNGQWKYQNDDGSYATGWIEDSGKSYYLDANGIMLANTTTPDGKQVGPDGALIP,-0.15
22,HMAHETIDVAALRVGMFVQLDLGWLSHPFPLSSFRISSEDQIATIRALGLKRVRWSSEQSDS,-4.58
23,HMAHPRTHEALNPLWEKYLGPNAGNDFFLSGGTSLKALMFLKDLEKTLNKRIAIHAFFKDPTYEHVVSD,-0.84
24,HMAHTGGNTLTREKAVSVRSASDALLFEIHWNETPREDILSTREEKVDGKTYSIITIRTGKGREDHYYLLS,-1.35
25,HMAHYPGKVNNELVEFIRSEQRKTPHMTLTGLNRKLQRTYDLTLSESTVRKLVEAETILPLAREPD,-0.25
26,HMAIDLPVTTVNGKDYYYYDVQPKETIFSLSQRLGISREEIISYNPGVDGGLKAYTRLYFPVESGL,-1.21
27,HMAIDLSLIPGNLLRELHGAVEDGDMYRIRELIRSISAVDEKVGKELLLLAERYDYERLLELVND,-0.887
28,HMAIDWVQIKAEYISGTMSASKLAEKHGVSVYAIRKRSGKERWQELRRQNQSETANKIAEKI,-2.16
29,HMAIDYYQTLINLGYKLQDRGDYWQTSAIHRGGDNPTALQIYKNTGVWKDYVSGGGFKPFKALVEKSD,-0.944
30,HMAIELTPRQLDIIELVRKHAPITGEQIAELLGVTRPSIRSDLGLLVMLGYIDAKPKVGYFAGPRM,-1.16
